{
  "source": "patent US20190127444A1",
  "about": "(NEW YORK UNIVERSITY, published 2019)",
  "binders": {"B1": {"name": "0×4 linker variant of Construct 11 (bispecific antibody)", "heavy": "EVQLVETGGGLVKPGGSLRLSCSASRFSFRDYYMTWIRQAPGKGPEWVSHISGSGSTIYYADSVRGRFTISRDNAKSSLYLQMDSLQADDTAVYYCARGGRATSYYWVHWGPGTLVTVSSASTKGPSVFPLAPSSKSTSGGTAALGCLVKDYFPEPVTVSWNSGALTSGVHTFPAVLQSSGLYSLSSVVTVPSSSLGTQTYICNVNHKPSNTKVDKKVEPKSCDKTHTCPPCPAPPVAGPDVFLFPPKPKDTLMISRTPEVTCVVVDVSHEDPEVKFNWYVDGVEVHNAKTKPREEQYNSTYRVVSVLTVLHQDWLNGKEYKCKVSNAALPAPIAKTISKAKGQPREPQVYTLPPSRDELTKNQVSLTCLVKGFYPSDIAVEWESNGQPENNYKTTPPVLDSDGSFFLYSKLTVDKSRWQQGNVFSCSVMHEALHNRFTQKSLSLSPGKMLPAPKNLVVSRVTEDSARLSWTAPDAAFDSFHIEYAEPWVWGEAIVLTVPGSERSYDLTGLKPGTEYVVFIGGVKGGHNSTPLSAIFTTGGGGSGGGGSGGGGSGGGGSMLPAPKNLVVSRVTEDSARLSWTAPDAAFDSFWITYEEKFYRGEAIVLTVPGSERSYDLTGLKPGTEYKVWIVGVKGGQGSWPLSAIFTT", "light": "EIVLTQSPATLSLSPGERATLSCRASQSVSGYLGWYQQKPGQAPRLLIYGASSRATGIPDRFSGSGSGTDFTLTISRLEPEDFAVYYCQQYGSSPLTFGGGTKLEIKRTVAAPSVFIFPPSDEQLKSGTASVVCLLNNFYPREAKVQWKVDNALQSGNSQESVTEQDSKDSTYSLSSTLTLSKADYEKHKVYACEVTHQGLSSPVTKSFNRGEC"}, "B2": {"name": "3×2 linker variant of Construct 11 (bispecific antibody)", "heavy": "EVQLVETGGGLVKPGGSLRLSCSASRFSFRDYYMTWIRQAPGKGPEWVSHISGSGSTIYYADSVRGRFTISRDNAKSSLYLQMDSLQADDTAVYYCARGGRATSYYWVHWGPGTLVTVSSASTKGPSVFPLAPSSKSTSGGTAALGCLVKDYFPEPVTVSWNSGALTSGVHTFPAVLQSSGLYSLSSVVTVPSSSLGTQTYICNVNHKPSNTKVDKKVEPKSCDKTHTCPPCPAPPVAGPDVFLFPPKPKDTLMISRTPEVTCVVVDVSHEDPEVKFNWYVDGVEVHNAKTKPREEQYNSTYRVVSVLTVLHQDWLNGKEYKCKVSNAALPAPIAKTISKAKGQPREPQVYTLPPSRDELTKNQVSLTCLVKGFYPSDIAVEWESNGQPENNYKTTPPVLDSDGSFFLYSKLTVDKSRWQQGNVFSCSVMHEALHNRFTQKSLSLSPGKGGGGSGGGGSGGGGSMLPAPKNLVVSRVTEDSARLSWTAPDAAFDSFHIEYAEPWVWGEAIVLTVPGSERSYDLTGLKPGTEYVVFIGGVKGGHNSTPLSAIFTTGGGGSGGGGSMLPAPKNLVVSRVTEDSARLSWTAPDAAFDSFWITYEEKFYRGEAIVLTVPGSERSYDLTGLKPGTEYKVWIVGVKGGQGSWPLSAIFTT", "light": "B1 light"}, "B3": {"name": "1×4 linker variant of Construct 11 (bispecific antibody)", "heavy": "EVQLVETGGGLVKPGGSLRLSCSASRFSFRDYYMTWIRQAPGKGPEWVSHISGSGSTIYYADSVRGRFTISRDNAKSSLYLQMDSLQADDTAVYYCARGGRATSYYWVHWGPGTLVTVSSASTKGPSVFPLAPSSKSTSGGTAALGCLVKDYFPEPVTVSWNSGALTSGVHTFPAVLQSSGLYSLSSVVTVPSSSLGTQTYICNVNHKPSNTKVDKKVEPKSCDKTHTCPPCPAPPVAGPDVFLFPPKPKDTLMISRTPEVTCVVVDVSHEDPEVKFNWYVDGVEVHNAKTKPREEQYNSTYRVVSVLTVLHQDWLNGKEYKCKVSNAALPAPIAKTISKAKGQPREPQVYTLPPSRDELTKNQVSLTCLVKGFYPSDIAVEWESNGQPENNYKTTPPVLDSDGSFFLYSKLTVDKSRWQQGNVFSCSVMHEALHNRFTQKSLSLSPGKGGGGSMLPAPKNLVVSRVTEDSARLSWTAPDAAFDSFHIEYAEPWVWGEAIVLTVPGSERSYDLTGLKPGTEYVVFIGGVKGGHNSTPLSAIFTTGGGGSGGGGSGGGGSGGGGSMLPAPKNLVVSRVTEDSARLSWTAPDAAFDSFWITYEEKFYRGEAIVLTVPGSERSYDLTGLKPGTEYKVWIVGVKGGQGSWPLSAIFTT", "light": "B1 light"}, "B4": {"name": "3×4 linker variant of Construct 11 (bispecific antibody)", "heavy": "EVQLVETGGGLVKPGGSLRLSCSASRFSFRDYYMTWIRQAPGKGPEWVSHISGSGSTIYYADSVRGRFTISRDNAKSSLYLQMDSLQADDTAVYYCARGGRATSYYWVHWGPGTLVTVSSASTKGPSVFPLAPSSKSTSGGTAALGCLVKDYFPEPVTVSWNSGALTSGVHTFPAVLQSSGLYSLSSVVTVPSSSLGTQTYICNVNHKPSNTKVDKKVEPKSCDKTHTCPPCPAPPVAGPDVFLFPPKPKDTLMISRTPEVTCVVVDVSHEDPEVKFNWYVDGVEVHNAKTKPREEQYNSTYRVVSVLTVLHQDWLNGKEYKCKVSNAALPAPIAKTISKAKGQPREPQVYTLPPSRDELTKNQVSLTCLVKGFYPSDIAVEWESNGQPENNYKTTPPVLDSDGSFFLYSKLTVDKSRWQQGNVFSCSVMHEALHNRFTQKSLSLSPGKGGGGSGGGGSGGGGSMLPAPKNLVVSRVTEDSARLSWTAPDAAFDSFHIEYAEPWVWGEAIVLTVPGSERSYDLTGLKPGTEYVVFIGGVKGGHNSTPLSAIFTTGGGGSGGGGSGGGGSGGGGSMLPAPKNLVVSRVTEDSARLSWTAPDAAFDSFWITYEEKFYRGEAIVLTVPGSERSYDLTGLKPGTEYKVWIVGVKGGQGSWPLSAIFTT", "light": "B1 light"}, "B5": {"name": "3×3 linker variant of Construct 11 (bispecific antibody)", "heavy": "EVQLVETGGGLVKPGGSLRLSCSASRFSFRDYYMTWIRQAPGKGPEWVSHISGSGSTIYYADSVRGRFTISRDNAKSSLYLQMDSLQADDTAVYYCARGGRATSYYWVHWGPGTLVTVSSASTKGPSVFPLAPSSKSTSGGTAALGCLVKDYFPEPVTVSWNSGALTSGVHTFPAVLQSSGLYSLSSVVTVPSSSLGTQTYICNVNHKPSNTKVDKKVEPKSCDKTHTCPPCPAPPVAGPDVFLFPPKPKDTLMISRTPEVTCVVVDVSHEDPEVKFNWYVDGVEVHNAKTKPREEQYNSTYRVVSVLTVLHQDWLNGKEYKCKVSNAALPAPIAKTISKAKGQPREPQVYTLPPSRDELTKNQVSLTCLVKGFYPSDIAVEWESNGQPENNYKTTPPVLDSDGSFFLYSKLTVDKSRWQQGNVFSCSVMHEALHNRFTQKSLSLSPGKGGGGSGGGGSGGGGSMLPAPKNLVVSRVTEDSARLSWTAPDAAFDSFHIEYAEPWVWGEAIVLTVPGSERSYDLTGLKPGTEYVVFIGGVKGGHNSTPLSAIFTTGGGGSGGGGSGGGGSMLPAPKNLVVSRVTEDSARLSWTAPDAAFDSFWITYEEKFYRGEAIVLTVPGSERSYDLTGLKPGTEYKVWIVGVKGGQGSWPLSAIFTT", "light": "B1 light"}, "B6": {"name": "Luk982 Hla binding FN3 domain, polyhistidine-tagged version (designed binder)", "chain": "LPAPKNLVVSRVTEDSARLSWTAPDAAFDSFAIGYPEYHDAGEAIHLFVPGSERSYDLTGLKPGTEYVVAIRGVKGGHASEPLHAHFTT"}, "B7": {"name": "Luk967 Hla binding FN3 domain, polyhistidine-tagged version (designed binder)", "chain": "LPAPKNLVVSRVTEDSARLSWEANAWDDVNFDSFLIQYQESEKVGEAIVLTVPGSERSYDLTGLKPGTEYTVSIYGVWNQTHYRWPSNPLSAIFTT"}, "B8": {"name": "Luk1012 Hla binding FN3 domain, polyhistidine-tagged version (designed binder)", "chain": "LPAPKNLVVSRVTEDSARLSWTAPDAAFDSFFILYVEYSVNGEAIELSVPGSERSYDLTGLKPGTEYDVIIGGVKGGNHSKPLVAFFTT"}, "B9": {"name": "Luk969 Hla binding FN3 domain, polyhistidine-tagged version (designed binder)", "chain": "LPAPKNLVVSRVTEDSARLSWNSEIAEQFFFDSFLIQYQESEKVGEAIVLTVPGSERSYDLTGLKPGTEYTVSIYGVWGHWDWYWKTSNPLSAIFTT"}},
  "data": [
    {"molecular_target": "T1, LukAB toxoid variant (LukA E323A), recombinant polyhistidine-tagged (S. aureus, UniProt Q2FFA2 28-351; P21224 30-338)", "T1 sequence 1": "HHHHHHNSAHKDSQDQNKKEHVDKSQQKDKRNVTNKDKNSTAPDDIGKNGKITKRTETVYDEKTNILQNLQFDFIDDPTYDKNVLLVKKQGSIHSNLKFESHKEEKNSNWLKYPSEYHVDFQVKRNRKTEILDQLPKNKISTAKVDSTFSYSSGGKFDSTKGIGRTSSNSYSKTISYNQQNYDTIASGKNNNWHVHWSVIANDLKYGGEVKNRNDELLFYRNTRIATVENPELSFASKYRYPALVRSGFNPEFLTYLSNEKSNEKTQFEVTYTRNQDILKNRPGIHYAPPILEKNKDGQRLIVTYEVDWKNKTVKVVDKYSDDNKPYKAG", "T1 sequence 2": "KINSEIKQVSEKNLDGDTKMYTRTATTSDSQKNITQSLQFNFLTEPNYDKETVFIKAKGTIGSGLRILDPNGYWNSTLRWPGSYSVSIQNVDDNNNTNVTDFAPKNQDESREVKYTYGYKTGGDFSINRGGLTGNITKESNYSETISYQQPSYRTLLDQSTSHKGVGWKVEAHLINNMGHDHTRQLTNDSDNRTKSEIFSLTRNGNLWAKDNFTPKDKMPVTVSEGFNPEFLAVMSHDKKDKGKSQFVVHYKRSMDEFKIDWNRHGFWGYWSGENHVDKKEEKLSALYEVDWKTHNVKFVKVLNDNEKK", "assay": "ELISA, biotinylated toxin on streptavidin plate", "values": [
      {"binder": "B1", "binding result": "binds"},
      {"binder": "B2", "binding result": "binds"},
      {"binder": "B3", "binding result": "binds"},
      {"binder": "B4", "binding result": "binds"},
      {"binder": "B5", "binding result": "binds"}
    ]},
    {"molecular_target": "T2, Human serum albumin conjugated with biotin (Rockland 009-0633) (human, UniProt P02768 25-609)", "T2 construct": "also called HSA", "T2 sequence (P02768 25-609 limits assumed)": "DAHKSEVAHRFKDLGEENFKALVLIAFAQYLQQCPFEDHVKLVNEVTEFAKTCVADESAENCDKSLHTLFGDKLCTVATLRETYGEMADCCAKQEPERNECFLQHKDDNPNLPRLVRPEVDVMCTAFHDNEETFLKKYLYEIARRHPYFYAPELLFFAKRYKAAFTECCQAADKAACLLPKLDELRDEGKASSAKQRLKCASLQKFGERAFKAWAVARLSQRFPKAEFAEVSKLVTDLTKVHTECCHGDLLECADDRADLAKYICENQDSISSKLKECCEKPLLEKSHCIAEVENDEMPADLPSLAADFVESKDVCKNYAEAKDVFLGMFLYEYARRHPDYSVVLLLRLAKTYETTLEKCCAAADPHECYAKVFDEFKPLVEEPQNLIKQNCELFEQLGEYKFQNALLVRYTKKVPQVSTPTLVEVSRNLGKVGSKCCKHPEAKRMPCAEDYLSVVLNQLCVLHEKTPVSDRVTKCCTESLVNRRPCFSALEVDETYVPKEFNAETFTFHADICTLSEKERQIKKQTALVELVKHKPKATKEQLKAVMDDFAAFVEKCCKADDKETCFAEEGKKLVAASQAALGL", "assay": "ELISA, biotinylated HSA on streptavidin plate", "values": [
      {"binder": "B6", "binding result": "no binding (tested: 1 µM)"},
      {"binder": "B7", "binding result": "no binding (tested: 1 µM)"},
      {"binder": "B8", "binding result": "no binding (tested: 1 µM)"},
      {"binder": "B9", "binding result": "no binding (tested: 1 µM)"}
    ]}
  ]
}
